Source: US20140294878A1
Residue numbers refer to the chain shown, from its start.

B1: wild-type Bet v 1-Mal d 1 hybrid molecule (SEQ ID NO: 3) (protein)
chain: HHHHHHGVFNYETETTSVIPAARLFKAFILDGDNLFPKVAPQAISSVENIEGNGGPGTIKKISFPEGFPFKYVKDRVDEVDHTNFKYNYSVIEGGPIGDTLEKISNEIKIVATPDGGSILKINNKYHTKGDHEVKAEQIKASKEMGETLLRAVESYLLAHSDAYNEFGVYTFENEFTSEIPPSRLFKAFVLDADNLIPKIAPQAIKQAEILEGDGGPGTIKKITFGEGSQYGYVKHKIDSVDEANYSYAYTLIEGDALTDTIEKVSYETKLVASGSGSIIKSISHYHTKGDVEIKEEHVKAGKEKAHGLFKLIESYLKGHPDAYN
B2: mutant Bet v 1-Mal d 1 hybrid molecule (SEQ ID NO: 4) (protein)
chain: B1 chain with K60A, K121A, K129A, D192A, N245A
B3: mixture of the single wt allergens (wt Bet v 1 and wt Mal d 1) (protein)
chain 1: HHHHHHGVFNYETETTSVIPAARLFKAFILDGDNLFPKVAPQAISSVENIEGNGGPGTIKKISFPEGFPFKYVKDRVDEVDHTNFKYNYSVIEGGPIGDTLEKISNEIKIVATPDGGSILKINNKYHTKGDHEVKAEQIKASKEMGETLLRAVESYLLAHSDAYN
chain 2: HHHHHHGVYTFENEFTSEIPPSRLFKAFVLDADNLIPKIAPQAIKQAEILEGDGGPGTIKKITFGEGSQYGYVKHKIDSVDEANYSYAYTLIEGDALTDTIEKVSYETKLVASGSGSIIKSISHYHTKGDVEIKEEHVKAGKEKAHGLFKLIESYLKGHPDAYN
B4: mixture of the two mutagenised allergens (mut Bet v 1-SEQ ID NO:6 and mut Mal d 1-SEQ ID NO:2) (protein)
chain 1: B3 chain 1 with K60A, K121A, K129A
chain 2: B3 chain 2 with D31A, N84A
B5: hypoallergenic Mal d 1 variant with two substitutions, positions 25 and 78 (SEQ ID NO: 2) (protein)
chain: B3 chain 2 with D31A, N84A
B6: wild-type Mal d 1, major allergen of Malus domestica (SEQ ID NO: 1) (protein)
chain: B3 chain 2
B7: wild-type Bet v 1, major allergen of Betula verrucosa pollen (SEQ ID NO: 5) (protein)
chain: B3 chain 1
B8: Mal d 1 variant with the single substitution Asn 78 in Ala (SEQ ID NO: 11) (protein)
chain: B3 chain 2 with N84A

target: IgE of patient serum 7; assay: ELISA inhibition, serum 7 pre-incubated with 1.25 µg/ml inhibitor; competitor: wt Bet v 1 adsorbed on wells

Compared with B1, B2 is higher in % inhibition of Bet v 1-IgE binding: 15.9% for the first, 18.2% for the second.

First: B3
Second: B4
The % inhibition of Bet v 1-IgE binding of the first is higher: 36.8% for the first, 20.6% for the second.

target: IgEs from a pool of sera from patients allergic to birch pollen and apple; assay: ELISA inhibition, serum pool pre-incubated with 0.625 µg/ml inhibitor; competitor: wt Bet v 1 adsorbed on wells

Compared with B5, B6 is higher in % inhibition of wt Bet v 1-IgE binding: 4.2% for the first, 46% for the second.

target: specific IgE contained in the sera of 7 patients allergic to birch and apple; assay: ELISA inhibition, 7 sera pre-incubated with 1.25 µg/ml inhibitor; competitor: wt Mal d 1 adsorbed on wells

Going from B1 to B2, the mean % inhibition of Mal d 1-IgE binding (7 sera) falls from 74.6% to 63.6%.

Going from B3 to B4, the mean % inhibition of Mal d 1-IgE binding (7 sera) falls from 82.8% to 51.6%.

target: IgE of patient serum 6; assay: ELISA inhibition, serum 6 pre-incubated with 1.25 µg/ml inhibitor; competitor: wt Bet v 1 adsorbed on wells

Compared with B1, B2 is lower in % inhibition of Bet v 1-IgE binding: 56.6% for the first, 0% for the second.

First: B3
Second: B4
The % inhibition of Bet v 1-IgE binding of the first is higher: 65.2% for the first, 41.8% for the second.

target: IgEs from a pool of sera from patients allergic to birch pollen and apple; assay: ELISA inhibition, serum pool pre-treated with 0.625 µg/ml inhibitor; competitor: wt Bet v 1 adsorbed on wells

Compared with B7, B8 is lower in % inhibition of wt Bet v 1-IgE binding: 94% for the first, 32.1% for the second.

target: IgE of patient serum 4; assay: ELISA inhibition, serum 4 pre-incubated with 1.25 µg/ml inhibitor; competitor: wt Bet v 1 adsorbed on wells

Going from B1 to B2, the % inhibition of Bet v 1-IgE binding falls from 61.7% to 35.9%.

First: B3
Second: B4
The % inhibition of Bet v 1-IgE binding of the first is higher: 81.2% for the first, 56.5% for the second.

target: IgE of patient serum 1; assay: ELISA inhibition, serum 1 pre-incubated with 1.25 µg/ml inhibitor; competitor: wt Bet v 1 adsorbed on wells

First: B1
Second: B2
The % inhibition of Bet v 1-IgE binding of the first is higher: 93.6% for the first, 90.2% for the second.

Compared with B3, B4 is lower in % inhibition of Bet v 1-IgE binding: 97.1% for the first, 88.4% for the second.

target: IgE of patient serum 7; assay: ELISA inhibition, serum 7 pre-incubated with 1.25 µg/ml inhibitor; competitor: wt Mal d 1 adsorbed on wells

Going from B1 to B2, the % inhibition of Mal d 1-IgE binding falls from 60.6% to 60.4%.

Going from B3 to B4, the % inhibition of Mal d 1-IgE binding falls from 70.3% to 65.6%.

target: IgE of patient serum 4; assay: ELISA inhibition, serum 4 pre-incubated with 1.25 µg/ml inhibitor; competitor: wt Mal d 1 adsorbed on wells

Going from B1 to B2, the % inhibition of Mal d 1-IgE binding falls from 71.3% to 64.3%.

First: B3
Second: B4
The % inhibition of Mal d 1-IgE binding of the first is higher: 77.3% for the first, 46% for the second.

target: IgE of patient serum 5; assay: ELISA inhibition, serum 5 pre-incubated with 1.25 µg/ml inhibitor; competitor: wt Mal d 1 adsorbed on wells

Compared with B1, B2 is lower in % inhibition of Mal d 1-IgE binding: 68% for the first, 50.8% for the second.

Going from B3 to B4, the % inhibition of Mal d 1-IgE binding falls from 88.3% to 27.6%.

target: IgE of patient serum 2; assay: ELISA inhibition, serum 2 pre-incubated with 1.25 µg/ml inhibitor; competitor: wt Mal d 1 adsorbed on wells

First: B1
Second: B2
The % inhibition of Mal d 1-IgE binding of the first is higher: 84.5% for the first, 41.9% for the second.

Going from B3 to B4, the % inhibition of Mal d 1-IgE binding falls from 93.9% to 42.4%.

target: IgE of patient serum 1; assay: ELISA inhibition, serum 1 pre-incubated with 1.25 µg/ml inhibitor; competitor: wt Mal d 1 adsorbed on wells

First: B1
Second: B2
The % inhibition of Mal d 1-IgE binding of the first is higher: 92% for the first, 91% for the second.

Compared with B3, B4 is lower in % inhibition of Mal d 1-IgE binding: 95.5% for the first, 76.7% for the second.

target: IgE of patient serum 6; assay: ELISA inhibition, serum 6 pre-incubated with 1.25 µg/ml inhibitor; competitor: wt Mal d 1 adsorbed on wells

Compared with B1, B2 is higher in % inhibition of Mal d 1-IgE binding: 70.5% for the first, 70.8% for the second.

Going from B3 to B4, the % inhibition of Mal d 1-IgE binding falls from 73.7% to 53.9%.

target: IgE of patient serum 3; assay: ELISA inhibition, serum 3 pre-incubated with 1.25 µg/ml inhibitor; competitor: wt Bet v 1 adsorbed on wells

First: B1
Second: B2
The % inhibition of Bet v 1-IgE binding of the first is higher: 76.2% for the first, 35.9% for the second.

Compared with B3, B4 is lower in % inhibition of Bet v 1-IgE binding: 90.9% for the first, 52.3% for the second.

target: IgE of patient serum 3; assay: ELISA inhibition, serum 3 pre-incubated with 1.25 µg/ml inhibitor; competitor: wt Mal d 1 adsorbed on wells

First: B1
Second: B2
The % inhibition of Mal d 1-IgE binding of the first is higher: 75.1% for the first, 66.3% for the second.

First: B3
Second: B4
The % inhibition of Mal d 1-IgE binding of the first is higher: 80.5% for the first, 49% for the second.

target: IgE of patient serum 2; assay: ELISA inhibition, serum 2 pre-incubated with 1.25 µg/ml inhibitor; competitor: wt Bet v 1 adsorbed on wells

First: B1
Second: B2
The % inhibition of Bet v 1-IgE binding of the first is higher: 85.1% for the first, 36.4% for the second.

Going from B3 to B4, the % inhibition of Bet v 1-IgE binding falls from 96.6% to 72.8%.

target: specific IgE contained in the sera of 7 patients allergic to birch and apple; assay: ELISA inhibition, 7 sera pre-incubated with 1.25 µg/ml inhibitor; competitor: wt Bet v 1 adsorbed on wells

First: B1
Second: B2
The mean % inhibition of Bet v 1-IgE binding (7 sera) of the first is higher: 63.3% for the first, 32.1% for the second.

Going from B3 to B4, the mean % inhibition of Bet v 1-IgE binding (7 sera) falls from 79.9% to 53.3%.

target: IgE of patient serum 5; assay: ELISA inhibition, serum 5 pre-incubated with 1.25 µg/ml inhibitor; competitor: wt Bet v 1 adsorbed on wells

First: B1
Second: B2
The % inhibition of Bet v 1-IgE binding of the first is higher: 50.8% for the first, 7.8% for the second.

First: B3
Second: B4
The % inhibition of Bet v 1-IgE binding of the first is higher: 91.6% for the first, 41% for the second.

target: IgEs from a pool of sera from patients allergic to birch pollen and apple; assay: ELISA inhibition, serum pool pre-incubated with 0.3125 µg/ml inhibitor; competitor: wt Mal d 1 adsorbed on wells

B5 was tested, and the % inhibition of wt Mal d 1-IgE binding was 25.4%.

B8 gave a % inhibition of SEQ ID NO:1-IgE binding of 19.7%.

target: IgEs from a pool of sera from patients allergic to birch pollen and apple; assay: ELISA inhibition, serum pool pre-treated with 0.3125 µg/ml inhibitor; competitor: wt Mal d 1 adsorbed on wells

Binder B6 has a % inhibition of wt Mal d 1-IgE binding of 93.3%.
